The data set addresses T1, Egalitarian (EGL) (UniProt Q9W1K4).
T1 sequence: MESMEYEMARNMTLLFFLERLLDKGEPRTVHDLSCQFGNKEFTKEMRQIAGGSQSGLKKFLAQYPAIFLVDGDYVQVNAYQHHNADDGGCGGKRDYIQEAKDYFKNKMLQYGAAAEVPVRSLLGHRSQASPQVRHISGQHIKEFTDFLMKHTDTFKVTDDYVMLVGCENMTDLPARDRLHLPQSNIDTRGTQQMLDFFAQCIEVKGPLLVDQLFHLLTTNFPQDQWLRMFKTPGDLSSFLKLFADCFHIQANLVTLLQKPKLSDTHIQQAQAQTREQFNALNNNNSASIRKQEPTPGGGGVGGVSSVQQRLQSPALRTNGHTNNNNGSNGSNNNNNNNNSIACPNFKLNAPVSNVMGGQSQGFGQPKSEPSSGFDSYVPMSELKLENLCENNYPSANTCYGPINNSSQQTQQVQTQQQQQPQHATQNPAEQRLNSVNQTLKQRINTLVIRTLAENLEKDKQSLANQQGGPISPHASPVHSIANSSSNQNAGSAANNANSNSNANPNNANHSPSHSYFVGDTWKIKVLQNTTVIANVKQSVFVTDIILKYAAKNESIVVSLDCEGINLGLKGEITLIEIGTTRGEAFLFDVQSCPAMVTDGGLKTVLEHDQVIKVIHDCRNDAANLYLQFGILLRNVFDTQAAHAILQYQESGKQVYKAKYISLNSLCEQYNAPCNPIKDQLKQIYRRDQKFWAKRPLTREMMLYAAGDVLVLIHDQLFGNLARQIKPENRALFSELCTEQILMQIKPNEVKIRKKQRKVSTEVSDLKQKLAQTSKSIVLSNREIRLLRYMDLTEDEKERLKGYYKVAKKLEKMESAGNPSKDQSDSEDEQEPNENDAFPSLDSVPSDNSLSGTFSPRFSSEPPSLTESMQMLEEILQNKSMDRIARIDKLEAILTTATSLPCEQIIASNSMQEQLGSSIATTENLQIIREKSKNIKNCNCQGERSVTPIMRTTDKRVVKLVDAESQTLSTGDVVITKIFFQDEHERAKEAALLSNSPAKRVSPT
Put plainly: pull-down. The note with it: reference (all sets normalized to TLS); EGL capture: DXB buffer (30 mM Hepes pH 7.3, 50 mM KCl, 2.5 mM MgCl2, 250 mM sucrose, 1 mM DTT), protease and RNase inhibitors, 90 min (binding temperature not …).

In turn, fs(1)K10 TLS gave a binding signal (fraction of TLS binding) of 1.

The record behind these values is PMC8046350.
